The text below walks through data of the DeepSol protein solubility set.

A short description of this data set: soluble on expression in E. coli; label from the status in PepcDB or PDB records.
For “VRSVQEHQRVVAEMMRACRPITVPLTQAQGLVLGGDVVAPLSLPVFDNSAMDGYAVRAEDTSGATPQNPVMLPVAEDIPAGRADMLTLQPVTAHRIMTGAPVPTGATAIVPVEATDGGVDSVAIRQQATPGKHIRRSGEDVAAGTTVLHNGQIVTPAVLGLAAALGLAELPVLPRQRVLVISTGSELASPGTPLQPGQIYESNSIMLAAAVRDAGAAVVATATAGDDVAQFGAILDRYAVDADLIITSGGVSAGAYEVVKDAFGSADYRGGDHGVEFVKVAMQPGMPQGVGRVAGTPIVTLPGNPVSALVSFEVFIRPPLRMAMGLPDPYRPHRSAVLTASLTSPRGKRQFRRAILDHQAGTVISYGPPASHHLRWLASANGLLDIPEDVVEVAAGTQLQVWDLT”, the “soluble on expression in E. coli” value was “not soluble”.

As to “MGSDKIHHHHHHMRTSTHAEVLTYSDEQTSVRHLQNSAPLALKHTISPAEIRDNLPAGQGGVGFLFHATDWDTLSFSFHNVKHRNASFEEELWRTKPFIASPIYSGSQIIGANIACPVPLELWLGSPRGIKRFRETQFFPALELARQAGLNMVAMGASTPYACNYGALPRDTRPPHITTGHAATAAMLKDWAMHCCNELDLEFGKSKLALFGAAGRLGTTVAKYALYKDAPRELVLIDLPDKVNLLTEQAKELMASDLLGKTRVSVHTFSPHTPLPDFDGAILASSTSVPYLTAADLRRAQFWIDDSHPRAASVEAELASRGHTLYIECFARGPAGLNTTFPFRLPTTRDCYTCFAEGYSAWQEGIASDFIIGSPPVWSVSYTHSLLKKYGFAVGPFHGKNGSPITLDTQLRGKQELMSS”, the “soluble on expression in E. coli” value is reported as “not soluble”.

Turning to “MGREFLDLFEQWAESYDQSVEGYDEQYRDVFAGYDRILSTVADKAGQVVLEFGIGTGNLTKKLLERGKTVYGIEPSAPMRKKAAEKLGERAVIMDGDFLQFPLPPEPIDTIASTYAFHHLTDAEKDEAIAKYSQLLHSGGKIVFADTAFRDKEAFRQTVEAARARGFHDLADDLEREYYTTLDVLASLFANHGFSVSFAQQNAFVWVMEAVKQTTLEHHHHHH”, the “soluble on expression in E. coli” value was “soluble”.

On to “MGSDKIHHHHHHMFDPESLKKLAIEIVKKSIEAVFPDRAVKETLPKLNLDRVILVAVGKAAWRMAKAAYEVLGKKIRKGVVVTKYGHSEGPIDDFEIYEAGHPVPDENTIKTTRRVLELVDQLNENDTVLFLLSGGGSSLFELPLEGVSLEEIQKLTSALLKSGASIEEINTVRKHLSQVKGGRFAERVFPAKVVALVLSDVLGDRLDVIASGPAWPDSSTSEDALKVLEKYGIETSESVKRAILQETPKHLSNVEIHLIGNVQKVCDEAKSLAKEKGFNAEIITTSLDCEAREAGRFIASIMKEVKFKDRPLKKPAALIFGGETVVHVKGNGIGGRNQELALSAAIALEGIEGVILCSAGTDGTDGPTDAAGGIVDGSTAKTLKAMGEDPYQYLKNNDSYNALKKSGALLITGPTGTNVNDLIIGLIV”, for which the “soluble on expression in E. coli” value was “soluble”.

Take “VKLDDHTYQINGRVLLDDLNKKFGIEFEDSEDIDTIGGWLQSQNTNLQKDDFVDTEYDRWTITEIDNHQIIWVNLNYEFNSGRPSVNEEQEDDERD”: the “soluble on expression in E. coli” value is recorded as “not soluble”.

For “MKRFNDFSKMKAFKDAQEHGKNRYKDVGCLDNNRVKLGGAWPHEYIHANYVSTPTNPKRFICTQAPLEKTCADFWFMCLQDRVETIFMLCNYKEKGAKKCHEYLPTEDNKDTMSFKEKGQKVTVKFESSKAIKFRDNSAAKVTKTVLTVEGAGCDKLKVNHYHWIDWPDRGVPTADNAILELLEKARVSKGPIAVHCSAGIGRTGSVVMLEYVMDQLLAGQIIEDTDKIIQKIREQRNNSVQTDHQYLFVHQVMMNFFEKRGLLDEATSAIHKDFTDQYSKCVL”, the “soluble on expression in E. coli” value is “not soluble”.

As to “MGSDKIHHHHHHMEIFEDVVRCGGFRAAALGRGVSSSAISQSISVLEEALGIRLLNRTTRSVAPTEAGEQLLERLRPALYEIRTAVDDLNQLRERPSGTVRINAPGPAADHVLCPLTFEFMKIYPDVNVEIVSDAAIIDIVEQGFDAGVRFGNQLAQDMIAMPLGPALRYAIVASPDYLRKRGRPHSPRDLLQHDCIRRRFPGGTMVTWKFARDGDEVEITPKGRLTLSSAHQELQAALAGSGIAHLFEDYVRDDVEQGRLVELLCDWKQKLPSWYLYYPSRRHTSAAMRAFLEYIRNQRQHPDRR”, the “soluble on expression in E. coli” value was “not soluble”.

As for “MPLVNSHIVEECLPFTSLRLDPEDINLSMGAGYVPDAEIQAISDALETEIAGICTPRFLYALFDAEPAGTCEVGVNGISLKTGSVITPYLKDAAGYVLFVATAGYEFEAFQHRIGSQGDILREFLLDAYGSAIAEAVVREVCRKVESRMFPLGYGVSHPYSPGYCGWHVTQQQLLFSCLPEFPCGVRLSDSSLMSPIKSVSGIIAYGPCIVKRKYGCELCGKADCYKNRNKLNRLEHHHHHH”, the “soluble on expression in E. coli” value was “soluble”.

On to “MGSDKIHHHHHHLVNFIRKNVLPQFGFSREHSTLYPLGNGHINQTFLVSDKSKSLVLQRINTQIFTDPKVVIQNAANISQHLLIKRQQLHYPLQVVSPIATVAGALYLDLGEQGFWRAIDYLPHSTTIEVVDTLNQAKLAAEAFGHFAEALSDLNPSCIADVIPNFLNLPQRIAQLREAKAGDTHNRFSHCIDWVGLCLSQTDLLATLVQYEAELPIRICHNDTKINNMLFDNRDMSSMAIIDLDTCMKGYLMYDFGDMVRAFCSPETEDSTNLTNVYARPEIVIAAATSYMESLGGIITPLEKRSLWLGTKVMSLMLGVRFLTDYLNGDTYFGVKYQTHNLDRAINQLTIYQSLLQQEAQLMPLFNS”, for which the “soluble on expression in E. coli” value is listed as “not soluble”.

Turning to “MGSDKIHHHHHHNRRELTYSPEATITISADWSQSGLNEKEQDYGATAIFYPTDGSTPFVALMGDRTYKTLCLKEGCYNVVLFNRSFDDFGNLCFRGEENYQTLEAYVKKMEIRNESSSERIIMESPDELAADYIEGFEVTSDMPENYSSAITQQSNRNSTRNENSCHLRFTPKKLTQKITVKIRIKGMNNIRKATCTLDGIAESIFLVSKQNSEKTVTQVLRLSNPIYDSGSVTEGTLSTTISVFGFDVEIPHNLHLKAKLVDGKTIFEESFNDLAIRRLDEEDGTMSVFIDMACEKTVPNVKTEGSSGFDADVDKWNDEVNSDIDI”, the “soluble on expression in E. coli” value was “not soluble”.

With “MIVRTLLDTDLYKFTTSYAYIKLFPYAMGTFSFNDRNETEYTEEFLEALKSEFNKLSRLRLTEEELEYMTRNCRFLPRVYWEWLSSFRFDPDKIDIHLDTTGRLHIEVSDFLYKVTLYEVPLLAIVSEIKNKFFGNVPDMSEILCKLSEKVELSNQHQLRFSEFGTRRRFSIDVQETVIKRLNDTAKYCTGTSNCYFAMKYGMKMMGTHPHEWFMFHGAQFGYKHANYMALENWVNVYDGDLGIALSDTYTSGIFLSNLSRKQAKLFDGVRCDSGNEFDFIDKLVARYKELGIDATTKTIVFSNALDFTKALEIQEYCKDKIRCSFGIGTNLTNDTGFAPSNIVMKLTQCKMNVNQEWRECIKLSDDEGKHTGSPEEVQACLYELRLAKLEHHHHHH”, the “soluble on expression in E. coli” value is reported as “soluble”.

As to “MSENHVPAWKRIALKRQTISSGDESKEKGQSNLIDDDPLNITTHLSTGNLTKKEKKRIINGESKSSTKKGKRVSKPGTKKKEKLSKDEKNSKKNKILKDQLRYLIEFFRTKSESKFPTGILELESVKENYGDSLIKDEPSESGVVEVWKFSKQKQNWLIKHFFNLDEIPSVYNDLLLLYFRDLQGKSKEELISKCKGKLKQWNDYVEDQETKIKALIAEDKASEPINGEEKEEGEKDGNAEQGKQKEVQDEQEEVQMPNKELVQRSLKLLEIWKNDDSEQIELKNFFVDV”, the “soluble on expression in E. coli” value is “soluble”.

Turning to “MGDWMIENKVRDVVKKLKPYVPGKSKEEIARAYGIKPEDIIKLGSNENPWGPSPKIKEKILDEIDKIHQYPEPVNPILMKELSKFLNVDEENIIVGGDGADEIIDTIFRTFVDDGDEVIIPIPTFTQYRVSATIHNAKIKYAKYDKEKDFKLNVESVLNNITDKTKVIFLCTPNNPTGNIIENRDVERVINETDALVVIDHAYIEYAKKEYDWTQKAPEYDNVIVLRTFSKVFGLAGMRVGYGVANKKIIDYMMRVKPIFSLTRLSQVCAITALRDREFFERCVRDGIKSREMLYNGLKKFKDIKVYPSEANYLLVELKTMKAKEFCEELLKRGVIVRDCTSFDGLGDNYVRVSIGTFEEVERFLKILEEIIS”, the “soluble on expression in E. coli” value is recorded as “not soluble”.

Turning to “MGSDKIHHHHHHDGMGLSQVYLTSMLEGRPLSFMKTPYIGLVKTHSANSWVTDSAAAGTALASGFKTNNGMINILPDGTVVPTIFEVAKTYGVRTGIVVTCRVTHATPAAFYAHVKSRDEENEIARQLVENETVDVVMGGGWANFLPKDLGGKRDDNLNLIELAKEKGYIYVKTREELSKISADSDKILALFAPSHLDPASSRKEQPMLYEMVEKALEILSKDDEPFFLMVEGSQIDWEAHDNDIYGVWKEVVEFDKAVQVALDFALKRGDTLVIVTADHETGGLGLSSGDYRVDVDKIRNFKKTTDWIMANYSPKDREKFKKAIEEYFGLTLSDEDLNRISMSKNPKIELGRILGEKVSVGWTTTTHSGTPVPIFAFGPGAENFTGFLDNTEIPRIIMKLTGYSLQYPLLKEPVTK”, the “soluble on expression in E. coli” value is “not soluble”.

With “AMTGSDGTKILTITRPDTHGTKTSLTARLYSDTTKKATLDTIFTVVTSPDSDKAKMWGHMPETVTAADGAVFKRPLLLKELSSTSGRTAIAEDNEDWAQFTQAQAISTSSNGCGSEYVPSQAGLESLYEANRGNAMKTVQGWPVASSYLSSTTGSSSLEQRDFKAVNLSSGTSSIIPSATKELLTCQ”, the “soluble on expression in E. coli” value is reported as “not soluble”.

“MTTYTSIANVIKERRSVRTFTDKAVEKDLLIELLNDATWAPNHKHREPWNCKLYIGEGRKKLVDAVLNSFTEEERAKRGKILSDRFLSTPAQIVVYMNEDPRQIQRDEDYAATCAFMQNFQLLAWERGLGCVWKSGGLNYNPLFIEGIGLTRGQRIVGILHIGYFDKAPEGKARTPITEKMEIIEG”: the “soluble on expression in E. coli” value was “soluble”.

Turning to “MGSDKIHHHHHHMAKRKKDTMEFRFYELPQGESALVLCGESWKRVYGHDELHLHFHNLLEIGICREGDGNMYLDEDIYQYHDGDITFIPENFPHVTVSYGEVVNFWEYIFIDLRSVIEEMFPNNAAFQNDAVSTISKKAFMTNVYQSPVVAGYINSIIRETNEHKEYSQRTIKLLVQGIVIELLRKYDELPEEDNDVVKGTNMSQIATALDYMNKHYSETIKAGELSSLCNMSETHFRRLFESYINMPPMEYLNLIRVQKACELMKKTNEPMELIAQKCGFTTQSTFNRNFRKFLNTSPYQWKINPENYEHKLLNFRISALKGW”, the “soluble on expression in E. coli” value is reported as “not soluble”.

In the case of “MTVDSIPLNTGAQLPLFGLGTWQVKDEAELTVALRAALDAGYRLIDTAHLYQNEHIIGKVLHEYISSGKLKREDIFVTSKLPFTAHAPEDVPKCVESQLKALQLEYIDLYLIHCPFPFKHQEGSFAPLMENGELAVTEIAHIDTWRALEKLYKEGKLKALGVSNFSCNQLQALYDAAEVKPANQQVECHIYWPQQELRALCKKLGVTVTAYAPLGSPGRKAARPDGVWPEGDPLLEPIVKQLAAKYHKTAAQILIRHLTQHGISTIPKSVSPDRIVENISTFDFKLSDEDMHTLNSIETRTRLFIADFAVKHPFFPHDDIDTSKVPKVGIRLH”, the “soluble on expression in E. coli” value was “soluble”.

Turning to “MSLRIADKTVTRAILERHGFTFKKSFGQNFLTDTNILQKIVDTAEIDKGVNVIEIGPGIGALTEFLAENAAEVMAFEIDDRLIPILADTLARFDNVQVVNQDILKADLQTQIQAFKNPDLPIKVVANLPYYITTPILMHLIESKIPFAEFVVMIQKEVADRISAMPNTKAYGSLSIAVQYYMTAKVSFIVPRTVFVPAPNVDSAILKMVRRDQPVVSVQDEDFFFRVSKVAFVHRRKTLWNNLTSHFGKSEDTKAKLEKALEIAKIKPSIRGEALSIPDFASLADALKEVGIEGHHHHHH”, the “soluble on expression in E. coli” value is reported as “soluble”.
